In patent US20170298096A1 (CANIMGUIDE THERAPEUTICS, published 2017):

T1: His-tagged P3028 peptide (PGE73) (human)
T1 construct: albumin-derived peptide, in solution at 0.5 ug/mL; not shown: His-tag
T1 peptide: VFDEFKPLVEEPQNLIK

T2: His-tagged P3028 peptide (PGE73) (human)
T2 construct: also called His-tag-P3028; not shown: His-tag
T2 peptide: VFDEFKPLVEEPQNLIK


Target: T1, His-tagged P3028 peptide (PGE73)
Assay: PEPSCAN ELISA, peptide on card
Protocol: (§1) After washing, the peroxidase substrate 2,2′-azine-di-3-ethylbenzthiazoline sulfonate (ABTS) and 2 μL of 3% H2O2 were added. The binding capacity of the mAb was measured as a color development at 405 nm (optical density, OD405). The color development was quantified with a charge-coupled device (CCD)—camera and an image processing system.
(§2) The OD405-values obtained by a CCD-camera was considered as raw data values (“rampo values,” “rampo units,” or “rampo scores”). […] First the CCD-camera made a picture of the card before peroxidase coloring and then again a picture after the peroxidase coloring. […] These values were copied into an excel file and labeled as a raw data file. One follow-up manipulation was allowed. Sometimes a well can contain an air-bubble resulting in a false-positive value. If manual inspection of the cards detect an air-bubble the value are set to 0 for that well.

Binder	RAMPO Score
KKLDTFFVKLSLGTER [SEQ ID NO: 363 KKLDTFFVKLSLGTER]	531
KKLDTFFVKLSLWTER [SEQ ID NO: 375 KKLDTFFVKLSLWTER]	430
KKLDTFFVKLSLFNER [SEQ ID NO: 382 KKLDTFFVKLSLFNER]	599
KKLDTFFVKLSLFFER [SEQ ID NO: 376 KKLDTFFVKLSLFFER]	348
KKLDTFFVKLSLFTDR [SEQ ID NO: 387 KKLDTFFVKLSLFTDR]	404
KKLDTFFVKLSLFSER [SEQ ID NO: 384 KKLDTFFVKLSLFSER]	369
KKLDTFFVKLSLFWER [SEQ ID NO: 386 KKLDTFFVKLSLFWER]	374
KKLDTFFVKLSLVTER [SEQ ID NO: 374 KKLDTFFVKLSLVTER]	446
KKLDTFFVKLSLRTER [SEQ ID NO: 371 KKLDTFFVKLSLRTER]	502
KKLDTFFVKLSLFTEF [SEQ ID NO: 388 KKLDTFFVKLSLFTEF]	297
KKLDTFFVKLSLNTER [SEQ ID NO: 368 KKLDTFFVKLSLNTER]	862
KKLDTFFVKLSLQTER [SEQ ID NO: 370 KKLDTFFVKLSLQTER]	1140
KKLDTFFVKLSLFIER [SEQ ID NO: 379 KKLDTFFVKLSLFIER]	375
KKLDTFFVKLSLFLER [SEQ ID NO: 380 KKLDTFFVKLSLFLER]	360
KKLDTFFVKLSLFPER [SEQ ID NO: 383 KKLDTFFVKLSLFPER]	551
KKLDTFFVKLSLMTER (also called 30677) [SEQ ID NO: 367 KKLDTFFVKLSLMTER]	1190
KKLDTFFVKLSLSTER [SEQ ID NO: 372 KKLDTFFVKLSLSTER]	635
KKLDTFFVKLSLLTER [SEQ ID NO: 366 KKLDTFFVKLSLLTER]	448
KKLDTFFVKLSLITER [SEQ ID NO: 365 KKLDTFFVKLSLITER]	468
KKLDTFFVKLSLPTER [SEQ ID NO: 369 KKLDTFFVKLSLPTER]	696
KKLDTFFVKLSLFMER [SEQ ID NO: 381 KKLDTFFVKLSLFMER]	501
KKLDTFFVKLSLHTER [SEQ ID NO: 364 KKLDTFFVKLSLHTER]	1050
KKLDTFFVKLSLTTER [SEQ ID NO: 373 KKLDTFFVKLSLTTER]	494
KKLDTFFVKLSLFGER [SEQ ID NO: 377 KKLDTFFVKLSLFGER]	343
KKLDTFFVKLSLFVER [SEQ ID NO: 385 KKLDTFFVKLSLFVER]	380
KKLDTFFVKLSLFHER [SEQ ID NO: 378 KKLDTFFVKLSLFHER]	463

The next lines start with the values.

RAMPO Score	Binder
291	KKLDTFFVKLSLFTEK [SEQ ID NO: 389 KKLDTFFVKLSLFTEK]
311	KKLDTFFVKLSLFTEN [SEQ ID NO: 390 KKLDTFFVKLSLFTEN]
311	KKLDTFFVKLSLFTEY [SEQ ID NO: 393 KKLDTFFVKLSLFTEY]
292	KKLDTFFVKLSLFTET [SEQ ID NO: 392 KKLDTFFVKLSLFTET]

Target: T2, His-tagged P3028 peptide (PGE73)
Assay: PEPSCAN ELISA; peptide on card, His-tagged P3028 in solution;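 also: bound protein detected by peroxidase colour with ABTS substrate, imaged on the peptide card by CCD camera at 405 nm, rampo units being raw OD405 readings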
Protocol: as §1, §2

Binder	RAMPO Score
KKLDTFFVYLSLFTER (P28R variant on PEPSCAN card) [SEQ ID NO: 552]	198 rampo units
KKLDTFFVGLSLFTER (P28R variant on PEPSCAN card) [SEQ ID NO: 98]	188 rampo units
KKLDTFFVGLSLFTER (P28R variant on PEPSCAN card) [SEQ ID NO: 97]	188 rampo units
KKLDTFFVKLSLFTEP (P28R variant on PEPSCAN card) [SEQ ID NO: 533]	234 rampo units

Now from value to binder:

RAMPO Score	Binder
137 rampo units	KKLDTFFVKLSLFTFR (P28R variant on PEPSCAN card) [SEQ ID NO: 571]
174 rampo units	KKLDTFFVFLSLFTER (P28R variant on PEPSCAN card) [SEQ ID NO: 560]
190 rampo units	KKLDTFFVILSLFTER (P28R variant on PEPSCAN card) [SEQ ID NO: 555]
233 rampo units	KKLDTFFVPLSLFTER (P28R variant on PEPSCAN card) [SEQ ID NO: 534]
191 rampo units	KKLDTFFVALSLFTER (P28R variant on PEPSCAN card) [SEQ ID NO: 554]
166 rampo units	KKLDTFFVLLSLFTER (P28R variant on PEPSCAN card) [SEQ ID NO: 562]
220 rampo units	KKLDTFFVCLSLFTER (P28R variant on PEPSCAN card) [SEQ ID NO: 541]
149 rampo units	KKLDTFFVDLSLFTER (P28R variant on PEPSCAN card) [SEQ ID NO: 569]
133 rampo units	KKLDTFFVKLSLFTEQ (P28R variant on PEPSCAN card) [SEQ ID NO: 573]
218 rampo units	KKLDTFFVKLSLFTEG (P28R variant on PEPSCAN card) [SEQ ID NO: 543]
176 rampo units	KKLDTFFVKLSLFTEI (P28R variant on PEPSCAN card) [SEQ ID NO: 558]
184 rampo units	KKLDTFFVKLSLFTES (P28R variant on PEPSCAN card) [SEQ ID NO: 557]
226 rampo units	KKLDTFFVKLSLFTEA (P28R variant on PEPSCAN card) [SEQ ID NO: 538]
217 rampo units	KKLDTFFVKLSLFTEL (P28R variant on PEPSCAN card) [SEQ ID NO: 544]
107 rampo units	KKLDTFFVKLSLFTEE (P28R variant on PEPSCAN card) [SEQ ID NO: 577]
133 rampo units	KKLDTFFVKLSLFTED (P28R variant on PEPSCAN card) [SEQ ID NO: 572]
202 rampo units	KKLDTFFVKLSLFTEW (P28R variant on PEPSCAN card) [SEQ ID NO: 551]
175 rampo units	KKLDTFFVKLSLFTEC (P28R variant on PEPSCAN card) [SEQ ID NO: 559]
